From patent US20250051407A1, “De novo designed sequence-specific DNA binding proteins” (University of Washington, priority 2023, published 2025)

What was measured:
[1] = test system: synTF-specific cis-regulatory elements (CRE) in HEK293T cells; experiment: Transcriptional activation by synTFs in HEK293T cells (ENGRAM); format: cell-based; conditions: DBP fused to GCN4 dimerization domain and VP64; HEK293T cells expressing PEmax; dependent on spacing between motifs
Method in brief: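 GCN4–VP64 fusions were co-transfected into PEmax-expressing HEK293T cells with barcoded pegRNA recorders driven by CREs of 4 palindromic repeats (spacings 1, 3 or 5 bp), with a TCF-LEF recorder as control (ratio 2:2:2:1). After 2 days, the HEK3 DNA TAPE was sequenced. Activation is given as barcode fold change versus control, in triplicate.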

[2] = test system: biotinylated target dsDNA with non-biotinylated competitor dsDNA; experiment: Yeast display competition assay with base-substituted competitor dsDNA; format: binding; conditions: all possible base mutations at each position of the competitor oligo

B1: DBP48: designed DNA-binding protein, SEQ ID NO: 22, DNA target D (protein)
chain: MTPEEIAEAKRIGKEVKERRKELGLTQRELAEKLGVSRSTVSDIENGRRLPSEELLKKIKEILGV
[1]
  Fold activation of synTFs measured as normalized barcode abundance in the DNA TAPE: didn't show detectable activation
[2]
  DNA binding site specificity: specificities consistent with the designed sidechain-base interactions
